{"source": "paper PMC4582117", "about": "“VEGF-A/NRP1 stimulates GIPC1 and Syx complex formation to promote RhoA activation and proliferation in skin cancer cells” (Biology Open, 2015)", "binders": {"B1": {"name": "TAT-EGFP-peptide 1 (STLTASEV), the Targeted peptide (peptide)", "chain": "GSTLTASEV", "notes": "Detected with anti-GFP; also called Target peptide; not shown: EGFP, N-terminal, kept"}}, "biological_target": "T1, HA-tagged GIPC1 (GAIP interacting protein C terminus) (UniProt O14908 1-333)", "T1 construct": "GIPC1, scaffold protein with a PDZ domain; The plasmid list begins with 'Human NRP1WT, HA-tagged GIPC1, ...'; it is not clear whether 'Human' also covers GIPC1; also called GIPC1 (HA); source: HEK293T, transfected (pcDNA 3.1 TOPO, FuGENE6), in lysate", "T1 sequence (looked up)": "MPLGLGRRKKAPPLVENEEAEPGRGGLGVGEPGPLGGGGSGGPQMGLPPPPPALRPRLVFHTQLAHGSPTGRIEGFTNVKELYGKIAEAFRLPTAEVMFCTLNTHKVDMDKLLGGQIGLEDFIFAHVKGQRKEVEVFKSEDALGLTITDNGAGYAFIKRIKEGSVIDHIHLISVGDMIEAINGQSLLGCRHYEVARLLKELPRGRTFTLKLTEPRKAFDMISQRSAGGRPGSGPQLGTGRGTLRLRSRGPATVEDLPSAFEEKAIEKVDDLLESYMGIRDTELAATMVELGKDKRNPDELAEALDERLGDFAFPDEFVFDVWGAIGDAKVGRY", "assay": "co-IP; Scrambled or Targeted peptide mixed with lysate of HEK293T overexpressing HA-GIPC1, 1 h rotation at 4°C; co-immunoprecipitated with GIPC1; blot with anti-GFP", "details": "one partner purified"}
{"binder": "B1", "values": [{"measurement": "fold binding over the Scrambled peptide", "value": 3, "unit": "fold"}]}
